Target: T1, Full-length H-Ras (SNAPtag-(GAGS)2x-MBP-H-Ras-DoubleHisTag) (human, UniProt P01112 1-189, SNAP-Cell 430 dye on the SNAP-tag)
T1 construct: H-Ras GTPase, human, full length; loaded with GDP or GTP as the experiment says; Held on Ni beads by the C-terminal double His tag; The nucleotide state (GDP or GTP) is a condition of the assay; also called wild-type Ras; WT Ras; source: E. coli BL21(T1R), purified (Ni-NTA, amylose, gel filtration Superdex S200); not shown: SNAP-tag, N-terminal, kept; DoubleHisTag (10xHis-(GAGS)3x-6xHis), …
Assay: recruitment of fluorescent effector to Ras-loaded beads, spinning disk confocal microscopy; two competing effectors, each with its own fluorophore, in equivalent amounts on the same Ras-loaded beads; 2 uM RasGRF GEF step input, 5 mM GTP; GAP-free or with NF1-GAP
Settings: both partners purified

B1: RBD from the A-Raf kinase (SNAPtag-(GAGS)2x-MBP-ARafRBD-StrepII) (domain or fragment, UniProt P10398 19-91, looked up)
chain: GTVKVYLPNKQRTVVTVRDGMSVYDSLDKALKVRGLNQDCCVVYRLIKGRKTVTAWDTAIAPLDGEELIVEVL
modifications: SNAP-Surface 488 or SNAP-Surface 549 dye on the SNAP-tag
notes: source: E. coli BL21(T1R), purified (Streptactin, amylose, gel filtration Superdex S75); not shown: SNAP-tag, N-terminal, kept
For B1, the “output amplitude, fold lower than C-Raf RBD (GAP-free two-effector network)” value was 20 times lower.

— publication PMC4775219 (eLife, 2016)
